Biological target: T1, CXCR4 receptor (human (endogenous in HEK-293)), P61073
T1 chain: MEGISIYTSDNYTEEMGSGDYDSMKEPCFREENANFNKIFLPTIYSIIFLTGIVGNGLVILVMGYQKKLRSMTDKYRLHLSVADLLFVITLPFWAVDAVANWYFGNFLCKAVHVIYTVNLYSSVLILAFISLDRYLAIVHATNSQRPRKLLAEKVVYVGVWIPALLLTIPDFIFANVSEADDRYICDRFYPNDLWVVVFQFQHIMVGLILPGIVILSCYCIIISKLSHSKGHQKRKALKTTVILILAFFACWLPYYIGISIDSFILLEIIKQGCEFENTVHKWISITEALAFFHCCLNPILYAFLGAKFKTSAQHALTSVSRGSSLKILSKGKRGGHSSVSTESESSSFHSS
Experiment: cross-linking
Conditions: remark: other sources report otherwise

B1: CXCR4 receptor, P61073 1-352 (receptor)
chain: MEGISIYTSDNYTEEMGSGDYDSMKEPCFREENANFNKIFLPTIYSIIFLTGIVGNGLVILVMGYQKKLRSMTDKYRLHLSVADLLFVITLPFWAVDAVANWYFGNFLCKAVHVIYTVNLYSSVLILAFISLDRYLAIVHATNSQRPRKLLAEKVVYVGVWIPALLLTIPDFIFANVSEADDRYICDRFYPNDLWVVVFQFQHIMVGLILPGIVILSCYCIIISKLSHSKGHQKRKALKTTVILILAFFACWLPYYIGISIDSFILLEIIKQGCEFENTVHKWISITEALAFFHCCLNPILYAFLGAKFKTSAQHALTSVSRGSSLKILSKGKRGGHSSVSTESESSSFHSS
  stoichiometry N: 2

Source: publication PMC2132943
